Where a chain is given by its changes, count along the chain named. Groups on a side chain read outwards from the residue. No end group written: not given here. NSMP = not defined here
T1: BSA-conjugated Aβ heptapeptide AEFRHDC (C-terminal Cys coupled to NSMP-activated BSA)
T1 construct: also called Peptide 2-7
T1 peptide: AEFRHDC

T2: BSA-conjugated Aβ heptapeptide LVFFAEC (reading uncertain; also: BSA conjugate)
T2 construct: also called Peptide 17-22
T2 peptide: LVFFAEC([NSMP-BSA])

T3: BSA-conjugated Aβ heptapeptide VFFAEDC (C-terminal Cys coupled to NSMP-activated BSA)
T3 construct: also called Peptide 18-23
T3 peptide: VFFAEDC

T4: BSA-conjugated Aβ heptapeptide FFAEDVC (C-terminal Cys coupled to NSMP-activated BSA)
T4 construct: also called Peptide 19-24
T4 peptide: FFAEDVC

B1: MS-Roche #7.12 Fab (Fab, V domains shown)
VH: QVQLVESGGGLVQPGGSLRLSCAASGFTFSSYGMSWVRQAPGKGLEWVSNISGSGSSTYYADSVKGRFTISRDNSKNTLYLQMNSLRAEDTAVYYCARGKGNTHKPYGYVRYFDVWGQGTLVTVSS
VL: DIVLTQSPATLSLSPGERATLSCRASQYVSSPYLAWYQQKPGQAPRLLISGSSNRATGVPARFSGSGSGTDFTLTISSLEPEDFAVYYCLQLYNIPNTFGQGTKVEIKR
B2: MS-Roche #3.4.H3 Fab (Fab, V domains shown)
VH: QVQLVESGGGLVQPGGSLRLSCAASGFTFSSYAMSWVRQAPGKGLEWVSVISQTGRKIYYADSVKGRFTISRDNSKNTLYLQMNSLRAEDTAVYYCARLTHYARYYRYFDVWGQGTLVTVSS
VL: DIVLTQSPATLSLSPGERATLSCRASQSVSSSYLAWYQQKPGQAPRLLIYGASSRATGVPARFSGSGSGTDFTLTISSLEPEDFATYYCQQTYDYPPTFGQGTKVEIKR
B3: MS-Roche #3.4.H17 Fab (Fab, V domains shown)
VH: B2 VH with V50A, Q53E, T54F, R56Q, K57F
VL: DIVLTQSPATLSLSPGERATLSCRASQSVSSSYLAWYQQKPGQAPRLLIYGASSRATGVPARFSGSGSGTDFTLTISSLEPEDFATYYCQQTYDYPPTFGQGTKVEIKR
B4: MS-Roche #3.4.L11 Fab (Fab, V domains shown)
VH: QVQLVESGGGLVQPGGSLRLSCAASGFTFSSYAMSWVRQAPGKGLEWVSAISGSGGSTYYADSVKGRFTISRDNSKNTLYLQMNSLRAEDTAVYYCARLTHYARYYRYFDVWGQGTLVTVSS
VL: DIVLTQSPATLSLSPGERATLSCRASQLVGRAYLAWYQQKPGQAPRLLIYGASSRATGVPARFSGSGSGTDFTLTISSLEPEDFATYYCQQTYDYPPTFGQGTKVEIKR
B5: MS-Roche #3.6.H6 Fab (Fab, V domains shown)
VH: B2 VH with V50A, Q53E, T54H, R56T, K57N
VL: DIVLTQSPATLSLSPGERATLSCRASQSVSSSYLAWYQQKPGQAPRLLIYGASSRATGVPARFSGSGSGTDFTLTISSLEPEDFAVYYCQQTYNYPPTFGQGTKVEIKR
B6: MS-Roche #3.6.H2 Fab (Fab, V domains shown)
VH: B2 VH with Q53E, T54R, R56I, K57N, I58T
VL: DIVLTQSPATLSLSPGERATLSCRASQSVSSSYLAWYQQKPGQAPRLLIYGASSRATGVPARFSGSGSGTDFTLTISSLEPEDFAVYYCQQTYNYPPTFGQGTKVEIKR
B7: MS-Roche #3.6.H1 Fab (Fab, V domains shown)
VH: B2 VH with Q53E, T54S, R56Q, K57Y, I58K
VL: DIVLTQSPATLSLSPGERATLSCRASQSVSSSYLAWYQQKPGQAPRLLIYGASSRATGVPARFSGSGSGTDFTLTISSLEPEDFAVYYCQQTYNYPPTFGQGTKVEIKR
B8: MS-Roche #3.4.H5 Fab (Fab, V domains shown)
VH: B2 VH with T54V, R56A, K57H
VL: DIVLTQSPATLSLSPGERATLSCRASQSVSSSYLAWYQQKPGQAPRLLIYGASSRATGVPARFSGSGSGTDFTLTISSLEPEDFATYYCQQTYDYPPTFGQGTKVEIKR
B9: MS-Roche #8.1.H1 Fab (Fab, V domains shown)
VH: QVQLVESGGGLVQPGGSLRLSCAASGFTFSSYAMSWVRQAPGKGLEWVSAISRSGSNIYYADSVKGRFTISRDNSKNTLYLQMNSLRAEDTAVYYCARLLSRGYNGYYHKFDVWGQGTLVTVSS
VL: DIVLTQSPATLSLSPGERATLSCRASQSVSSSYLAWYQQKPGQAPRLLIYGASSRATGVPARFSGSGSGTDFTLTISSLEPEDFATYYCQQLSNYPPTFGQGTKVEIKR
B10: MS-Roche #8.2.L1 Fab (Fab, V domains shown)
VH: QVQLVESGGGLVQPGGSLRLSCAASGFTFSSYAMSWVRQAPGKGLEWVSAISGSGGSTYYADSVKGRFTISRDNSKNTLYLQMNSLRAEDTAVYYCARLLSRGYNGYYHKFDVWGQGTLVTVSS
VL: B4 VL with L28R, G30S, R31G, A32R, T92L, Y93S, D94S
B11: MS-Roche #7.4H2×7.12L2 Fab (Fab, V domains shown)
VH: QLVESGGGLVQPGGSLRLSCAASGFTFSSYAMSWVRQAPGKGLEWVSAINYNGARIYYADSVKGRFTISRDNSKNTLYLQMNSLRAEDTAVYYCARGKGNTHKPYGYVRYFDVWGQGTLVTVSS
VL: B1 VL with Y28R, V29F, S30F, S31Y, P32K
notes: cross-cloned Fab
B12: MS-Roche #7.9H2×7.12L2(L1+2) Fab (Fab, V domains shown)
VH: B11 VH with Y51A, N52D, A54N, I56K
VL: B1 VL with Y28R, V29F, S30F, S31Y, P32K, V86T, L92I, I95M, N97I
notes: VL assembled from the legend's definition and cloning strategy 3
B13: MS-Roche #3.4H7×3.4L9 Fab (Fab, V domains shown)
VH: QLVESGGGLVQPGGSLRLSCAASGFTFSSYAMSWVRQAPGKGLEWVSVISETGKNIYYADSVKGRFTISRDNSKNTLYLQMNSLRAEDTAVYYCARLTHYARYYRYFDVWGQGTLVTVSS
VL: B4 VL with Q27R, L28R, V29I, G30H, R31V, A32Y
notes: cross-cloned Fab
B14: MS-Roche #7.11H1×7.2L1 Fab (Fab, V domains shown)
VH: B11 VH with A48G, Y51A, N52A, A54F, I56T
VL: B4 VL with L28Y, G30D, A32T, T92I, D94S, Y95F, P97H
notes: cross-cloned Fab; VH entry starts at QLVESGG
B15: MS-Roche #8.1H1×8.2L1 Fab (Fab, V domains shown)
VH: QLVESGGGLVQPGGSLRLSCAASGFTFSSYAMSWVRQAPGKGLEWVSAISRSGSNIYYADSVKGRFTISRDNSKNTLYLQMNSLRAEDTAVYYCARLLSRGYNGYYHKFDVWGQGTLVTVSS
VL: B4 VL with L28R, G30S, R31G, A32R, T92L, Y93S, D94S
notes: cross-cloned Fab
B16: MS-Roche #7.11H1×7.11L1 Fab (Fab, V domains shown)
VH: B11 VH with A48G, Y51A, N52A, A54F, I56T
VL: B4 VL with L28R, V29I, G30L, A32I, T92V, D94S, Y95P, P97H
notes: as for B14
B17: MS-Roche #7.11H2×7.2L1(L1) Fab (Fab, V domains shown)
VH: B11 VH with Y51A, A54Y, R55K, I56K
VL: B4 VL with L28Y, G30D, A32T, T92I, D94S, Y95F, P97H
B18: MS-Roche #3.4H1×3.4L9 Fab (Fab, V domains shown)
VH: B13 VH with V48A, G53S, K54I, N55R, I56K
VL: B4 VL with Q27R, L28R, V29I, G30H, R31V, A32Y
notes: cross-cloned Fab
B19: MS-Roche #3.4H3×3.4L7 Fab (Fab, V domains shown)
VH: B13 VH with E51Q, K54R, N55K
VL: B4 VL with L28R, V29L, A32L
notes: cross-cloned Fab
B20: MS-Roche #3.3H1×3.4L9 Fab (Fab, V domains shown)
VH: B13 VH with T52K, G53S, K54R, N55F
VL: B4 VL with Q27R, L28R, V29I, G30H, R31V, A32Y
notes: cross-cloned Fab
B21: MS-Roche #7.4H2×7.2L1 Fab (Fab, V domains shown)
VH: B11 VH
VL: B4 VL with L28Y, G30D, A32T, T92I, D94S, Y95F, P97H
notes: as for B14
B22: MS-Roche #3.6H5×3.6L1 Fab (Fab, V domains shown)
VH: B13 VH with V48A, T52S, N55T, I56K
VL: B4 VL with L28F, V29I, G30Q, A32F, T86V, D94N
notes: cross-cloned Fab
B23: MS-Roche #7.2H2×7.2L1 Fab (Fab, V domains shown)
VH: B11 VH with Y51G, N52T, A54M, R55K, I56K
VL: B4 VL with L28Y, G30D, A32T, T92I, D94S, Y95F, P97H
notes: cross-cloned Fab
B24: MS-Roche #3.4H7×3.4L7 Fab (Fab, V domains shown)
VH: B13 VH
VL: B4 VL with L28R, V29L, A32L
notes: cross-cloned Fab
B25: MS-Roche #3.6H5×3.6L2 Fab (Fab, V domains shown)
VH: B13 VH with V48A, T52S, N55T, I56K
VL: B4 VL with L28F, V29L, G30S, A32Y, T86V, D94N
notes: as for B14
B26: MS-Roche #3.4H3×3.4L9 Fab (Fab, V domains shown)
VH: B13 VH with E51Q, K54R, N55K
VL: B4 VL with Q27R, L28R, V29I, G30H, R31V, A32Y
notes: cross-cloned Fab

Biological target: T1, BSA-conjugated Aβ heptapeptide AEFRHDC
Assay: ELISA
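Wherever OD ratio 17-22/BSA is given: ELISA of antibody at 10 or 2 µg/ml binding plate-coated BSA–peptide conjugates, detected with HRP anti-human Ig and TMB colour, mock-treated BSA without peptide as negative control.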
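Wherever OD ratio 18-23/BSA is given: ELISA of antibody at 10 or 2 µg/ml binding plate-coated BSA–peptide conjugates, detected with HRP anti-human Ig and TMB colour, mock-treated BSA without peptide as negative control.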
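Wherever OD ratio 2-7/BSA is given: ELISA of antibody at 10 or 2 µg/ml binding plate-coated BSA–peptide conjugates, detected with HRP anti-human Ig and TMB colour, mock-treated BSA without peptide as negative control.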
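Wherever Peptide-ratio 17-22/2-7 is given: ELISA of antibody at 10 or 2 µg/ml binding plate-coated BSA–peptide conjugates, detected with HRP anti-human Ig and TMB colour, mock-treated BSA without peptide as negative control.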

| OD ratio 2-7/BSA | Binder |
| --- | --- |
| 38 | B1 |
| 22 | B2 |
| 28 | B3 |
| 31 | B4 |
| 25 | B5 |
| 19 | B6 |
| 23 | B7 |
| 28 | B8 |
| 29 | B9 |
| 26 | B10 |

Biological target: T2, BSA-conjugated Aβ heptapeptide LVFFAEC
Assay: ELISA

| OD ratio 17-22/BSA | Peptide-ratio 17-22/2-7 | Binder |
| --- | --- | --- |
| 6 | 0.16 | B1 |
| 9 | 0.41 | B2 |
| 5 | 0.18 | B3 |
| 6 | 0.19 | B4 |
| 1 | 0.04 | B5 |
| 2 | 0.11 | B6 |
| 3 | 0.13 | B7 |
| 5 | 0.18 | B8 |
| 22 | 0.77 | B9 |
| 15 | 0.6 | B10 |

Biological target: T3, BSA-conjugated Aβ heptapeptide VFFAEDC
Assay: ELISA

| OD ratio 18-23/BSA | Peptide-ratio 18-23/2-7 | Binder |
| --- | --- | --- |
| 8 | 0.21 | B1 |
| 17 | 0.77 | B2 |
| 12 | 0.43 | B3 |
| 20 | 0.65 | B4 |
| 4 | 0.16 | B5 |
| 8 | 0.42 | B6 |
| 13 | 0.57 | B7 |
| 13 | 0.46 | B8 |
| 25 | 0.88 | B9 |
| 32 | 1.26 | B10 |

Biological target: T4, BSA-conjugated Aβ heptapeptide FFAEDVC
Assay: ELISA

| OD ratio 19-24/BSA | Peptide-ratio 19-24/2-7 | Binder |
| --- | --- | --- |
| 7 | 0.18 | B1 |
| 11 | 0.5 | B2 |
| 11 | 0.39 | B3 |
| 5 | 0.16 | B4 |
| 7 | 0.28 | B5 |
| 3 | 0.16 | B6 |
| 5 | 0.22 | B7 |
| 4 | 0.14 | B8 |
| 25 | 0.86 | B9 |
| 31 | 1.22 | B10 |

These binders were tested against T5, human Aβ (1-40) peptide (human) (assay: SPR, immobilized fibers;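 further: biacore SPR using in vitro grown Aβ1-40 or Aβ1-42 fibrils immobilized on the chip with Fab analytes, KD from koff/kon fits or equilibrium isotherms based on total Fab concentration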).
T5 construct: also called Aβ1-40 fibers
Experimental: (§1) Biacore2000 and Biacore3000 instruments were used for these measurements. Aβ1-40 and Aβ1-42 fibers were generated in vitro by incubation of synthetic peptides at a concentration of 200 μg/ml in 10 mM Na-acetate buffer (pH 4.0) for three days at 37° C. […] For binders with slow kinetics KD values were calculated by curve fitting of the time-dependent sensor responses, i.e. from the ratio of koff/kₒₙ. Binders with fast kinetics were analyzed by fitting the concentration-dependent sensor responses at equilibrium (adsorption-isotherms). KD values were calculated from the Biacore sensograms based on the total Fab concentration as determined by a protein assay. […] Briefly, time-dependent protein binding to Aβ1-40 fibers immobilized on the Biacore chip was measured during the association phase under mass-limited conditions at different flow rates of the analyte solution.

| Kd | Binder |
| --- | --- |
| 28 nM | B1 |
| 6.7 nM | B2 |
| 2 nM | B3 |
| 5.3 nM | B4 |
| 36 nM | B5 |
| 19.8 nM | B6 |
| 18.9 nM | B7 |
| 26.5 nM | B8 |
| 13.6 nM | B9 |
| 4.8 nM | B10 |

Each binder was assayed against T6, Aβ (1-42) peptide (human) (assay: SPR, immobilized fibers;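 further: biacore SPR using in vitro grown Aβ1-40 or Aβ1-42 fibrils immobilized on the chip with Fab analytes, KD from koff/kon fits or equilibrium isotherms based on total Fab concentration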).
T6 construct: also called Aβ1-42 fibers; Aβ4
Experimental: as §1

| Kd | Binder |
| --- | --- |
| 60 nM | B1 |
| 8.4 nM | B2 |
| 4.3 nM | B3 |
| 2.6 nM | B4 |
| 11.8 nM | B5 |
| 54 nM | B6 |
| 23.1 nM | B7 |
| 36 nM | B8 |
| 9.2 nM | B9 |
| 3.7 nM | B10 |

These binders were tested against T5, human Aβ (1-40) peptide (assay: SPR, kinetic fit, immobilized fibers;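 further: surface plasmon resonance on a Biacore chip bearing in vitro formed Aβ1-40 or Aβ1-42 fibers, KD taken as koff/kon by fitting time-resolved sensor responses, based on total Fab concentration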).
Experimental: as §1

| Kd | Binder |
| --- | --- |
| 1.4 nM | B11 |
| 0.4 nM | B12 |
| 2.66 nM | B13 |
| 1.75 nM | B14 |
| 1.3 nM | B15 |
| 0.41 nM | B16 |
| 1 nM | B17 |
| 0.25 nM | B18 |
| 0.92 nM | B19 |
| 2.16 nM | B20 |
| 1.4 nM | B21 |
| 1.25 nM | B22 |
| 1.29 nM | B23 |
| 1.19 nM | B24 |
| 1.26 nM | B25 |
| 1.05 nM | B26 |

Each binder was assayed against T6, Aβ (1-42) peptide (assay: SPR, kinetic fit, immobilized fibers;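 further: surface plasmon resonance on a Biacore chip bearing in vitro formed Aβ1-40 or Aβ1-42 fibers, KD taken as koff/kon by fitting time-resolved sensor responses, based on total Fab concentration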).
Experimental: as §1

| Kd | Binder |
| --- | --- |
| 1.8 nM | B11 |
| 0.4 nM | B12 |
| 3.51 nM | B13 |
| 1.39 nM | B14 |
| 1.6 nM | B15 |
| 0.47 nM | B16 |
| 0.6 nM | B17 |
| 0.5 nM | B18 |
| 0.92 nM | B19 |
| 2.97 nM | B20 |
| 1.4 nM | B21 |
| 1.04 nM | B22 |
| 1.43 nM | B23 |
| 1.23 nM | B24 |
| 0.84 nM | B25 |
| 0.93 nM | B26 |

Reference: US20100172907A1 (Hoffmann-La Roche, published 2010)
